From US20230340151A1 (Pfizer, published 2023)
Where two headings read alike, the source gives them in different places. Blank lines part the entries; values can stand above or below the binder they belong to.

Legend:
Human GUCY2C ECD Cleaved [1] = target: T1, Human GUCY2C ECD Cleaved (human, UniProt P25092 24-430); assay: DELFIA ELISA on coated human GUCY2c
T1 construct: also called human GUCY2c extracellular domain protein (ECD)

[2] = target: T2, Human GUCY2c on tumor cells (T84, HT55) (human, UniProt P25092 24-1073); assay: cell-based or functional assay
[3] = target: T2, Human GUCY2c on tumor cells (T84, HT55); assay: cell-based or functional assay; remark: listed apart in the source
Human CD3 epsilon-delta = target: T3, Human CD3 epsilon-delta (human); assay: SPR, CD3 captured by anti-His, 25 C
T3 construct: Single-chain epsilon-linker-delta with His6; also called huCD3
T3 chain: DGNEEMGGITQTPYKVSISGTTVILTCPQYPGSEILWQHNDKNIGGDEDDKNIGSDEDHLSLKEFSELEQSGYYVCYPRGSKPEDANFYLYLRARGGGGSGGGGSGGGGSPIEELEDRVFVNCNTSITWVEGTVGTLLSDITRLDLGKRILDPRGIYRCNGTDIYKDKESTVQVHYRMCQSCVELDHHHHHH

[4] = target: T4, Human GUCY2C full length (SEQ ID NO: 224), recombinant protein (human, UniProt P25092 24-430, limits assumed); assay: SPR, anti-human IgG capture, 25 C
T4 construct: also called huGUCY2C; biotinylated human GUCY2c

Human GUCY2C ECD Cleaved [5] = target: T1, Human GUCY2C ECD Cleaved; assay: direct DELFIA, 60 C
[6] = target: T5, Cynomolgus GUCY2C-ECD Cleaved (cynomolgus, UniProt P25092 24-430 (human entry)); assay: direct DELFIA, 60 C
T5 construct: also called CyGUCY2C
T5 chain: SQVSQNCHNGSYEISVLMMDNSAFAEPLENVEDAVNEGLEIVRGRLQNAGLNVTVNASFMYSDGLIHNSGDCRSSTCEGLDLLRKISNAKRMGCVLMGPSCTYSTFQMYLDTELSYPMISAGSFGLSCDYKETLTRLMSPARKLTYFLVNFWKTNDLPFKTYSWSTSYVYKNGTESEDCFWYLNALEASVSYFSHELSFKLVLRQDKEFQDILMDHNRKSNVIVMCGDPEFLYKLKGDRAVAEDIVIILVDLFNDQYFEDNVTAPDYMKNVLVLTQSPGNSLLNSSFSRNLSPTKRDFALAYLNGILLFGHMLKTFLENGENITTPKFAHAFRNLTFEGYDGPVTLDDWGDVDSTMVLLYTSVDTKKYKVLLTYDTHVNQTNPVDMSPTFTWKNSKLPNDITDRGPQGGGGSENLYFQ

Human GUCY2C ECD Cleaved [7] = target: T1, Human GUCY2C ECD Cleaved; assay: direct DELFIA, RT
[8] = target: T5, Cynomolgus GUCY2C-ECD Cleaved; assay: direct DELFIA, RT
Human GUCY2C ECD Cleaved [9] = target: T1, Human GUCY2C ECD Cleaved; assay: SPR, human IgG1
Human GUCY2C ECD Cleaved [10] = target: T1, Human GUCY2C ECD Cleaved; assay: SPR, human IgG1 against human GUCY2c ECD
GUCY2C_ECD Peptide 19 = target: T6, GUCY2C_ECD Peptide 19 (human); assay: co-crystal structure, 1.6 A
T6 construct: also called GUCY2c peptide 19; GUCY2c-ECD peptide number 19
T6 peptide: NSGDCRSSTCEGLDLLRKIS

T4 sequence (P25092 24-430 F281L limits assumed): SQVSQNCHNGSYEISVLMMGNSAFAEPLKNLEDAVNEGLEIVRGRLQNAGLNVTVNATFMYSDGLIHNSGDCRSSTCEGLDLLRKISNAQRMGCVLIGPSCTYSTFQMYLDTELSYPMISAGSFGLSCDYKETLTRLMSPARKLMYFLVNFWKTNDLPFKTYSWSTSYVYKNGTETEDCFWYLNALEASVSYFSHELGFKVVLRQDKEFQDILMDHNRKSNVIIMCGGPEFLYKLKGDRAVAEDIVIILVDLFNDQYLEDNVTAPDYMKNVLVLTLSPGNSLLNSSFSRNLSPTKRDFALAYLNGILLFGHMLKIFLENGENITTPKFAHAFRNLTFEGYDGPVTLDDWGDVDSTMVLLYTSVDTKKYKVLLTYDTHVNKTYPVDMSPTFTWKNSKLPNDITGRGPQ
T1 sequence (P25092 other isoform, or with tags, fused parts or gaps): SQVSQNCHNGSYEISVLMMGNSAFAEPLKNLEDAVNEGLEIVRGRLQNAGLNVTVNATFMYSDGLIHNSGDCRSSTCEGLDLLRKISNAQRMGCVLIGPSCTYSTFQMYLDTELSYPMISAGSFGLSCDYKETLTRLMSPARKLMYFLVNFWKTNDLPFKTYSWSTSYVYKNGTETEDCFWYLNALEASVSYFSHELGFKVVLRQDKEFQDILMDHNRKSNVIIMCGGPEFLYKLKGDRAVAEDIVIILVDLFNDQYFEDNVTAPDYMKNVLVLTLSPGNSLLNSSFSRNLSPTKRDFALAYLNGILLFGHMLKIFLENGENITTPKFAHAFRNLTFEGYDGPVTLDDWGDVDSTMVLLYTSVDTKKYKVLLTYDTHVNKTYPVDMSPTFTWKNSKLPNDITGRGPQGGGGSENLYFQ
T2 sequence (P25092 24-1073 limits assumed): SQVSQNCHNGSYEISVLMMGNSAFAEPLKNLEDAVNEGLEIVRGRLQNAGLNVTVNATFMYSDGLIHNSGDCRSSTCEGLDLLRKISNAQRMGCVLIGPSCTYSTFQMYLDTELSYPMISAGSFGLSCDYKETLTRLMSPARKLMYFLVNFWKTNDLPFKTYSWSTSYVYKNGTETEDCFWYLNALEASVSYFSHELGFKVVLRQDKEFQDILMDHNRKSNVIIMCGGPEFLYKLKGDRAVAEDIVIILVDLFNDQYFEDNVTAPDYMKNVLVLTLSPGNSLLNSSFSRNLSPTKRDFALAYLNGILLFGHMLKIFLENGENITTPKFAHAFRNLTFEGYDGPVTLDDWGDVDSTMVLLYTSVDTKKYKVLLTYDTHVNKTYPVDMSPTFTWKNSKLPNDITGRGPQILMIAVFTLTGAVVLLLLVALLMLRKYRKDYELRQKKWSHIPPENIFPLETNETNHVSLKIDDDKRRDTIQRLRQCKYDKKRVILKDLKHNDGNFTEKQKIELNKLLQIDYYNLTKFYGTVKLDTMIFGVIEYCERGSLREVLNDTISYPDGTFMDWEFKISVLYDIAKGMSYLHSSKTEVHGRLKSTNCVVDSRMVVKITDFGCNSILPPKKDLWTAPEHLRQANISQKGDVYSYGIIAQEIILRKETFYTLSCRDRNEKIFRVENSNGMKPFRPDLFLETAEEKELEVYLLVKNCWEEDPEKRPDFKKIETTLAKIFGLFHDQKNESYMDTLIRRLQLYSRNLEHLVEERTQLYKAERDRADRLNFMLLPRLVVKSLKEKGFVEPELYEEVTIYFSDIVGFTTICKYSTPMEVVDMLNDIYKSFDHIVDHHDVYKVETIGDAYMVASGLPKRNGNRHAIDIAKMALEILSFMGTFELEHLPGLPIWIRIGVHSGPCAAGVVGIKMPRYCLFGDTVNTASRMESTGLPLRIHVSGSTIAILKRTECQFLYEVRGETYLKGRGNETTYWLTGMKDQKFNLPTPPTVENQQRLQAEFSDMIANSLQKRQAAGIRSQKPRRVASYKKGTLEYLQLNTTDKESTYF

EC50 (Human GUCY2C ECD Cleaved [1]): 0.25 µg/mL
B1: GUCY2C-0118, rabbit chimeric IgG version of GUCY2C-0098 (antibody)
heavy: QVQLQQPGAELVKPGASVKLSCKASGYTFTSYWMHWVKQRPGQGLEWIGEIKPSNGLTNYIEKFKNKATLTVDKSATTAYMQLSSLTAEDSAVYYCTRTITTTEGYWFFDVWGAGTTVTVSSGQPKAPSVFPLAPCCGDTPSSTVTLGCLVKGYLPEPVTVTWNSGTLTNGVRTFPSVRQSSGLYSLSSVVSVTSSSQPVTCNVAHPATNTKVDKTVAPSTCSKPTCPPPELLGGPSVFIFPPKPKDTLMISRTPEVTCVVVDVSQDDPEVQFTWYINNEQVRTARPPLREQQFNSTIRVVSTLPIAHQDWLRGKEFKCKVHNKALPAPIEKTISKARGQPLEPKVYTMGPPREELSSRSVSLTCMINGFYPSDISVEWEKNGKAEDNYKTTPAVLDSDGSYFLYSKLSVPTSEWQRGDVFTCSVMHEALHNHYTQKSISRSPGK
light: DIVLTQSPASLAVSLGQRATISCRASESVDYYGTSLMQWYQQKPGQPPKLLIYAASNVESGVPARFSGSGSGTDFSLNIHPVEEDDIAMYFCQQTRKVYTFGGGTKLEIKGDPVAPTVLIFPPAADQVATGTVTIVCVANKYFPDVTVTWEVDGTTQTTGIENSKTPQNSADCTYNLSSTLTLTSTQYNSHKEYTCRVTQGTTSVVQSFNRGDC
notes: also called Rabbit IgG version of clone 9H3

Kd (Human CD3 epsilon-delta): 26.9 nM | koff (Human CD3 epsilon-delta): 0.00956 s⁻¹ | kon (Human CD3 epsilon-delta): 355000 M⁻¹ s⁻¹ | Kd [4]: 3.69 nM | koff [4]: 0.000434 s⁻¹ | kon [4]: 118000 M⁻¹ s⁻¹ | EC50 (Human GUCY2C ECD Cleaved [5]): 19.2 nM | EC50 [6]: 15.7 nM | EC50 (Human GUCY2C ECD Cleaved [7]): 4.39 nM | EC50 [8]: 4.9 nM
B2: GUCY2C-1478 (bispecific antibody)
chain 1: DIQLTQSPSSLSASVGDRVTITCRASESVDYYGSSLLQWYQQKPGKAPKLLIYAASKLASGVPSRFSGSGSGTDFTLTISSLQPEDFATYYCQQTRKAYTFGQGTKLEIKGGGSGGGGEVQLVESGGGLVQPGGSLRLSCAASGFTFSDYYMTWVRQAPGKGLEWVAFIRNQARGYTSDHNPSVKGRFTISRDNAKNSLYLQMNSLRAEDTAVYYCARDRPSYYVLDYWGQGTTVTVSSGCPPCPAPEAAGAPSVFLFPPKPKDTLMISRTPEVTCVVVDVSHEDPEVKFNWYVDGVEVHNAKTKPREEQYNSTYRVVSVLTVLHQDWLNGKEYKCKVSNKALPAPIEKTISKAKGQPREPQVCTLPPSREEMTKNQVSLWCLVKGFYPSDIAVEWESNGQPENNYKTTPPVLDSDGSFFLYSKLTVDKSRWQQGNVFSCSVMHEALHNHYTQKSLSLSPG
chain 2: DIQMTQSPSSLSASVGDRVTITCTSSQSLFNVRSQKNYLAWYQQKPGKAPKLLIYWASTRESGVPSRFSGSGSGTDFTLTISSLQPEDFATYYCKQSYDLFTFGGGTKVEIKGGGGSGGGGEVQLVESGGGLVQPGGSLRLSCAASGYTFTSYWMHWVRQAPGKGLEWIGEIKPSNGLTNVHEKFKNRFTISVDKAKNSAYLQMNSLRAEDTAVYYCTRTITTTEGYWFFDVWGQGTLVTVSSGCPPCPAPEAAGAPSVFLFPPKPKDTLMISRTPEVTCVVVDVSHEDPEVKFNWYVDGVEVHNAKTKPREEQYNSTYRVVSVLTVLHQDWLNGKEYKCKVSNKALPAPIEKTISKAKGQPREPQVYTLPPCREEMTKNQVSLSCAVKGFYPSDIAVEWESNGQPENNYKTTPPVLDSDGSFFLVSKLTVDKSRWQQGNVFSCSVMHEALHNHYTQKSLSLSPG
notes: CD3-0006
T84 tumor cell EC50 (T cell cytotoxicity, E:T 5:1) [2]: 0.24 nM | T84 tumor cell EC50 (T cell cytotoxicity, E:T 5:1) [3]: 0.24 nM

fold improvement of affinity against the parent antibody (GUCY2C-1640) (Human GUCY2C ECD Cleaved [9]): 3.4 fold | Kd (Human GUCY2C ECD Cleaved [10]): 4.07 nM | koff (Human GUCY2C ECD Cleaved [10]): 0.0011 s⁻¹ | kon (Human GUCY2C ECD Cleaved [10]): 272000 M⁻¹ s⁻¹
B3: GUCY2C-1715 (antibody, human IgG1, V domains shown)
VH: EVQLVESGGGLVQPGGSLRLSCAASGFTFSSYWMHWVRQAPGKGLEWIGEIKPSTKYTNVHEKFKDRFTISVDKAKNSAYLQMNSLRAEDTAVYYCTRTIFTNEGYWFFDVWGQGTLVTVSS
VL: DIQLTQSPSSLSASVGDRVTITCRASESVSIYGSSLMQWYQQKPGKAPKLLIYAASKLASGVPSRFSGSGSGTDFTLTISSLQPEDFATYYCQQTRKAYTFGQGTKLEIK
notes: full human IgG1/kappa

binding result (GUCY2C_ECD Peptide 19): binds
B4: GUCY2C-1608 scFv (scFv)
scFv: EVQLVESGGGLVQPGGSLRLSCAASGFTFSSYWMHWVRQAPGKGLEWIGEIKPSNELTNVHEKFKDRFTISVDKAKNSAYLQMNSLRAEDTAVYYCTRTITTTEGYWFFDVWGQGTLVTVSSGGGGSGGGGSGGGGSGDIQLTQSPSSLSASVGDRVTITCRASESVDYYGSSLLQWYQQKPGKAPKLLIYAASKLASGVPSRFSGSGSGTDFTLTISSLQPEDFATYYCQQTRKAYTFGQGTKLEIKTGSENLYFQ
